Reference: paper PMC3821638, “Molecular Cloning and Characterization of the Calcineurin Subunit A from Plutella xylostella” (International Journal of Molecular Sciences, 2013)

Tested on: T1, O=[N+]([O-])c1ccc(OP(=O)(O)O)cc1
T1 construct: catalytic (phosphatase) domain CNA1–341 (PxCNα), His-tagged, expressed in E. coli
Assay: Michaelis-Menten kinetics of purified rPxCNα (Km)
Assay type: biochemical, Plutella xylostella
Conditions: Mn2+ ([…] MnCl2 in assay buffer)

Calcineurin subunit A (PxCNA), catalytic domain PxCNα (Plutella xylostella), sequence (chain, as listed by the source): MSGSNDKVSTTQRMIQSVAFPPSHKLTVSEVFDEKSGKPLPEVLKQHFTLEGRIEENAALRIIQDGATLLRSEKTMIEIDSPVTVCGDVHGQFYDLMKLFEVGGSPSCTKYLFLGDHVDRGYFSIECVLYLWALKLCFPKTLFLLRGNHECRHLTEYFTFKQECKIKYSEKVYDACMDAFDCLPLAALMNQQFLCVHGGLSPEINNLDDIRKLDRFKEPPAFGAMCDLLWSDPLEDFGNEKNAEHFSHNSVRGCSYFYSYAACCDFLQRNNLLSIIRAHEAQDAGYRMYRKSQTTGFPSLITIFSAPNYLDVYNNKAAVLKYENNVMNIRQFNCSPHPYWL

For “Calcineurin subunit A (PxCNA), catalytic domain PxCNα (Plutella xylostella)”, which Km is on record?
The Km was 4.6 mM.
